Biological target: MSC membrane glycoproteins (plasminogen membrane receptors) (human (endogenous in MSCs))

Michaelis-Menten constant of plasmin formation on scuPA-treated MSCs, plasminogen 0-2 μM, chromogenic substrate CBS0065: 0.5 µM
Substance: Glu-plasminogen (natural protein)

Reference: PMC12256440
